Drawing on US20260374869 (published 2026), this text covers Kd for four molecules.

As a reminder, the Kd is the concentration at which binding is half-saturated. A low value points to a tighter complex.

The chains are these.
B1: DARPin #15 (designed binder)
chain: DLGDKLLEAAQYGQDDEVRILLAAGADVNAKDNSGSTPLHLAAQHGHLEIVEVLLKAGADVNAKDWWGWTPLHEAATTGHLEIVEVLLKAGADVNAQDKSGKTPADLAAHAGHEDIAEVLQKAA
B2: DARPin #2 (designed binder)
chain: DLGKKLLQAARAGQLDEVRELLKAGADVNAKDQHGFTPLHVAAKEGHLEIVEVLLKAGADVNAKDSFGETPLHLAAEHGHLEIVEVLLKAGADVNAKDQSGWTPLHLAAWAGHLEIVEVLLKAGADVNAQDKSGKTPADLAARAGHQDIAEVLQKAA
B3: DARPin #1 (designed binder)
chain: DLGVKLLHAAQTGQDDEVRILLAAGADVNAKDWLGVTPLHYAAWIGHLEIVEVLLKAGADVNAKDWQGQTPLHLAAQWGHLEIVEVLLKAGADVNAQDNHGNTPADLAAEVGHEDIAEVLQKAA
B4: DARPin #3 (designed binder)
chain: DLGKKLLQAARAGQLDEVRELLKAGADVNAKDQQGVTPLHIAAYGHLEIVEVLLKAGADVNAKDLQGETPLHVAAWAGHLEIVEVLLKAGADVNAKDKHGITPLHLAAKKGHLEIVEVLLKAGAEVNAQDKSGKTPADLAARAGHQDIAEVLQKAA

For the experiment, the target named is T1, human CD2 (human, UniProt P06729).
T1 chain: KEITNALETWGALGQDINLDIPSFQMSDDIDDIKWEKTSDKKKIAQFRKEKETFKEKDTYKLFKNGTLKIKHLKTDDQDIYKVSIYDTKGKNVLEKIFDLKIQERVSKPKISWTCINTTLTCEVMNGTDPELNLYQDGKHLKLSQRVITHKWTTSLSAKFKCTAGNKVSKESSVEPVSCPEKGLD
As to the kind of experiment: SPR.
In turn, B1 displayed an equilibrium dissociation constant (Kd) of 15.9 nM. This counts as double-digit nanomolar.

With B2, binding was put at a Kd of 382 nM.

In the case of B3, the Kd came out at 3.28 nM.

As for B4, the Kd turned out to be 48 nM. This Kd lies about 15-fold higher than the previous one.
